Target: methyltransferase domain of human GLP (residues 951-1235) (human)
Test: not stated; affinity of GLP for H3 peptides; the method of the affinity is not told; the methods describe only a SAHH-coupled kinetic assay of GLP (Km, kcat; peptide 2 uM to 4 mM, 70 uM SAM, room temperature, 25 mM potassium phosphate pH 8)

decrease in affinity against the peptide not methylated at K4: 43%
Substance: H3K9 peptide trimethylated at lysine 4

Reference: paper PMC2797608
